The source of these data is US20050008648A1.

The target of this experiment is CD33 (UniProt P20138). Put plainly: cell-based or functional assay.
Sequence of CD33 (P20138 18-364 limits assumed): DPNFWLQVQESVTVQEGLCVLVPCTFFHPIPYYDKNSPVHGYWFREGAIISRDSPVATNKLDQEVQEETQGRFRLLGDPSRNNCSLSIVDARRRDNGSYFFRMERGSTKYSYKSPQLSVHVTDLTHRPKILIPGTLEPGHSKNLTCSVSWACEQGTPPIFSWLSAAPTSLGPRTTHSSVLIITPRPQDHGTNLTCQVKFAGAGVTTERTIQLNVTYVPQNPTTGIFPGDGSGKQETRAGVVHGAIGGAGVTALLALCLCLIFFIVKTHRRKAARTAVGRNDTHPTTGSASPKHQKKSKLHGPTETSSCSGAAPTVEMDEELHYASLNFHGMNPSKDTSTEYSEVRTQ

Sequence of HuM195-dCK conjugate (B2R8V6 whole entry): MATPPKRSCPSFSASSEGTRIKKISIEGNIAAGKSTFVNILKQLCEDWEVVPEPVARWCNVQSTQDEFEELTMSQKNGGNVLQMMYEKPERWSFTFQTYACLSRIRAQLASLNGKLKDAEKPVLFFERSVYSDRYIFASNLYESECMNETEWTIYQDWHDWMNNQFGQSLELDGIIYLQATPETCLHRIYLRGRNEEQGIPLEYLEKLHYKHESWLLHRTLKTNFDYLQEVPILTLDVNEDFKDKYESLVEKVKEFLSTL

Consider HuM195-dCK conjugate, for which the apoptosis assay on NB4 cells, conjugate with AraC 250 nM amounted to 65%; the cell death of HL60 cells (Annexin V and propidium iodide staining), conjugate in combination with AraC 1 µM was 70%.
